Holding throughout (experiment): purified protein
Substrate in data set [1]: N[C@@H](CS)C(=O)O
Particulars: fixed 2-oxoglutarate (6 mM), HEPES pH 8.0, 50 µM PLP, 30 °C.

Substrate in data set [2]: N[C@@H](CC(=O)O)C(=O)O
The note with it: fixed 2-oxoglutarate (6 mM), HEPES pH 8.0, 50 µM PLP, 30 °C.

Substrate in data set [3]: O=C(O)CCC(=O)C(=O)O
Particulars: HEPES pH 8.0, 50 µM PLP, 30 °C.

Substrate in data set [4]: C[C@H](N)C(=O)O
Particulars: fixed 2-oxoglutarate (6 mM), HEPES pH 8.0, 50 µM PLP, 30 °C.

Results on two proteins are retold here after publication doi:10.1101/2025.05.23.655777v1.

As a reminder, the Km is the concentration of substrate that gives half-maximal velocity. The kcat is the maximal rate divided by the concentration of active sites.

B1: Asp-AT; aspartate aminotransferase 1 (recombinant) (Arabidopsis thaliana) (protein)
chain: MSSWWKSVEPAPKDPILGVTEAFLADPSPEKVNVGVGAYRDDNGKPVVLECVREAEKRLAGSTFMEYLPMGGSAKMVDLTLKLAYGDNSEFIKDKRIAAVQTLSGTGACRLFADFQKRFSPGSQIYIPVPTWSNHHNIWKDAQVPQKTYHYYHPETKGLDFSALMDDVKNAPEGSFFLLHACAHNPTGVDPTEEQWREISQLFKAKKHFAFFDMAYQGFASGDPARDAKSIRIFLEDGHHIGISQSYAKNMGLYGQRVGCLSVLCEDPKQAVAVKSQLQQLARPMYSNPPLHGAQLVSTILEDPELKSLWLKEVKVMADRIIGMRTTLRESLEKLGSPLSWEHVTKQIGMFCYSGLTPEQVDRLTSEYHIYMTRNGRISMAGVTTGNVGYLANAIHEVTKSS
In the case of B1, the figures for the Km in “purified protein [1]”, in “purified protein [2]” and in “purified protein [3]” (fixed aspartate (12 mM)) were 15140 ± 640 µM, 3330 ± 60 µM and 460 ± 20 µM, respectively. Besides, the kcat in the data set “purified protein [1]” was 0.81 s⁻¹; in the data set “purified protein [2]”, 232.26 s⁻¹; in “purified protein [3]” (fixed aspartate (12 mM)) it was 180.60 s⁻¹.

B2: Ala-AT; alanine aminotransferase 1 (recombinant) (Arabidopsis thaliana) (protein)
chain: SASDSSSSLPVTLDTINPKVIKCEYAVRGEIVNIAQKLQEDLKTNKDAYPFDEIIYCNIGNPQSLGQQPITFFREVLALCSYTALLDESATHGLFSSDSIERAWKILDQIPGRATGAYSHSQGIKGLRDAIADGIEARDGFPADPNDIFMTDGASPGVHMMMQLLITSEKDGILCPIPQYPLYSASIALHGGTLVPYYLDEASGWGLEISELKKQLEDARSKGITVRALAVINPGNPTGQVLSEENQRDVVKFCKQEGLVLLADEVYQENVYVPDKKFHSFKKVARSMGYGEKDLALVSFQSVSKGYYGECGKRGGYMEVTGFTSDVREQIYKMASVNLCSNISGQILASLIMSPPKPGDDSYESYIAEKDGILSSLARRAKTLEEALNKLEGVTCNRAEGAMYLFPCLHLPQKAIAAAEAEKTAPDNFYCKRLLKATGIVVVPGSGFRQVPGTWHFRCTILPQEDKIPAIVDRLTAFHQSFMDEFRD
As to B2, the Km in the data set “purified protein [4]” was determined as 2510 ± 180 µM; in “purified protein [1]” it was 770 ± 100 µM; in the data set “purified protein [3]” (fixed alanine (9 mM)), 180 ± 10 µM. The kcat in “purified protein [4]” stood at 367.69 s⁻¹; in the data set “purified protein [1]”, 0.14 s⁻¹; in the data set “purified protein [3]” (fixed alanine (9 mM)) it was 262.91 s⁻¹.
